Laboratory results from patent publication US20230242676A1 (KISOJI BIOTECHNOLOGY, published 2023).
Where a chain is given by its changes, count along the chain named. In names and notes the source's numbering stands.

B1: SEQ ID NO 100 (other)
constant: GQPREPQVYVLPPSRQEMTKNQVSLTCLVEGFYPSDIAVEWESNGQPENNYKTTPPVLNSDGSFFLYSKLTVDKSRWQQGNVFSCSVMHEALHNHYTQKSLSLSPGK
notes: also called Mutated CH3 domain of KB099 Chain A (mutations D399N, K370E, E356Q, T350V)
B2: SEQ ID NO 102 (other)
constant: B1 constant with V10T, P12R
notes: also called Mutated CH3 domain of KB105 Chain A (mutations D399N, K370E, E356Q, P352R)
B3: SEQ ID NO 103 (other)
constant: B1 constant with V10T, P12E
notes: also called Mutated CH3 domain of KB108 Chain A (mutations D399N, K370E, E356Q, P352E)

Experiments:
SEQ ID NO 101 = target: T1, SEQ ID NO 101 (Homo sapiens (Human), UniProt P0DOX5 343-449 = IgG part); assay: co-expression of Chain A and Chain B vectors, SDS-PAGE and Western blot; heterodimer formation
T1 construct: also called Mutated CH3 domain of KB100 Chain B (mutations D399N, K439E, E357Q, T350V)
T1 constant: B1 constant with Q16E, E17Q, E30K, K99E

SEQ ID NO 95 = target: T2, SEQ ID NO 95 (Homo sapiens (Human), UniProt P0DOX5 343-449 = IgG part); assay: as above
T2 construct: also called Mutated CH3 domain of KB118 Chain B (mutations D399N); K439E
T2 constant: B1 constant with V10T, L11R, Q16E, E17Q, E30K, K99E

Binder	binding result (SEQ ID NO 101)	binding result (SEQ ID NO 95)
B1	binds	
B2		binds
B3		binds
